Experimental data as given in paper PMC2807034, “An Autoinhibitory Tyrosine Motif in the Cell-Cycle-Regulated Nek7 Kinase Is Released through Binding of Nek9” (Molecular Cell, 2009).

Assays:
Test in all cases: pull-down; GST-fusion protein (20 pmol) immobilised on glutathione Sepharose 4B beads; incubated with 1 ml of 3.5 uM Nek7 protein for 2 hr; PD buffer (20 mM HEPES pH 7.5, 150 mM NaCl, 0.05% Tween 20); three 30 min washes at 4°C; anti-His6 immunoblot
Conditions in all cases: both partners purified
[1] = target: T1, Nek7, wild-type, full-length human protein with C-terminal His6 tag (human, UniProt Q8TDX7 1-302)
T1 construct: Nek7 (NIMA-related kinase 7), human, full-length (35 kDa), cloned into pET30; The His6 tag is uncleavable; also called Nek7-WT; WT; source: E. coli Codonplus RPIL, coexpressed with lambda phosphatase, purified (HisTRAP, then dialysis or gel filtration); not shown: His6, C-terminal, kept
T1 sequence (Q8TDX7 whole entry): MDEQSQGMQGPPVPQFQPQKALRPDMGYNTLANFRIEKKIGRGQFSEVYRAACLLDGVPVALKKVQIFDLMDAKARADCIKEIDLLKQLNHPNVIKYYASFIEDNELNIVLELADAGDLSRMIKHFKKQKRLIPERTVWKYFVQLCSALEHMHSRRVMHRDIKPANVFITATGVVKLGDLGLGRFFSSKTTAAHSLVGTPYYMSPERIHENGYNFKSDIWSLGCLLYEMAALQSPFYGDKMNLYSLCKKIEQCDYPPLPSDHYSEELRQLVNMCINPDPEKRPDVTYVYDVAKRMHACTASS

[2] = target: T2, Nek7-Δ20, N-terminal truncation of Nek7 starting at residue 20 (human, UniProt Q8TDX7 20-302)
T2 construct: Nek7, human, truncation starting at residue 20; source: bacterially expressed and purified
T2 sequence (Q8TDX7 20-302, stated change not applied): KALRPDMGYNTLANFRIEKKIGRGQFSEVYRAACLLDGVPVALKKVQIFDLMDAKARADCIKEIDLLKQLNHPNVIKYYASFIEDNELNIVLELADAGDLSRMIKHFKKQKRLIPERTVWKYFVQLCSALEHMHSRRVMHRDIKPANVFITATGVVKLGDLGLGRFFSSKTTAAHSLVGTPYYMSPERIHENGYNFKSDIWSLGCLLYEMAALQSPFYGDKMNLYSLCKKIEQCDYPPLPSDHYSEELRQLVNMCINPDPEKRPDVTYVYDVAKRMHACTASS

[3] = target: T3, Nek7-Δ30, N-terminal truncation of Nek7 starting at residue 30 (human, UniProt Q8TDX7 30-302)
T3 construct: Nek7, human, truncation starting at residue 30; source: bacterially expressed and purified
T3 sequence (Q8TDX7 30-302, stated change not applied): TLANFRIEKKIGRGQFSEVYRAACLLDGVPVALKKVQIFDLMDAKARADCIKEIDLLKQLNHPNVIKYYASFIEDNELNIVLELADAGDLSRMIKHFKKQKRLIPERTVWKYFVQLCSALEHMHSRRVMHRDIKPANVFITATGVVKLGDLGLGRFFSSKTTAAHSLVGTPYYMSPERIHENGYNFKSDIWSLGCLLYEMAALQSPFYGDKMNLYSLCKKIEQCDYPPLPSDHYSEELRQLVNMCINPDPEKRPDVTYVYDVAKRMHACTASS

Nek7-N33D = target: T4, Nek7-N33D (human, UniProt Q8TDX7 1-302, N33D)
T4 construct: Nek7, human, point mutant of the full-length His6 construct (QuikChange); also called ND; source: bacterially expressed and purified; not shown: His6, C-terminal, kept
T4 sequence (Q8TDX7 whole entry N33D): as the sequence (Q8TDX7 whole entry) above, with N33D counted along it

Nek7-Y28A/L31A = target: T5, Nek7-Y28A/L31A (human, UniProt Q8TDX7 1-302, Y28A | L31A)
T5 construct: Nek7, human, double point mutant of the full-length His6 construct (QuikChange); also called YA/LA; source: bacterially expressed and purified; not shown: His6, C-terminal, kept
T5 sequence (Q8TDX7 whole entry Y28A/L31A): as the sequence (Q8TDX7 whole entry) above, with Y28A, L31A counted along it

Measured: binding result

B1: GST-tagged C-terminal domain of human Nek9 (amino acids 706-960) (domain or fragment, UniProt Q8TD19 706-960, looked up)
chain: SLHHVPDLSCRGWHTILIVEKVLNSKTIRSNSSGLSIGTVFQSSSPGGGGGGGGGEEEDSQQESETPDPSGGFRGTMEADRGMEGLISPTEAMGNSNGASSSCPGWLRKELENAEFIPMPDSPSPLSAAFSESEKDTLPYEELQGLKVASEAPLEHKPQVEASSPRLNPAVTCAGKGTPLTPPACACSSLQVEVERLQGLVLKCLAEQQKLQQENLQIFTQLQKLNKKLEGGQQVGMHSKGTQTAKEEMEMDPKP
notes: Nek9, human, noncatalytic C-terminal domain (CTD), amino acids 706-960, cloned into pGEX-4T1; pGEX-4T1 normally places GST at the N-terminus; also called Nek9-CTD; GST-Nek9-CTD; source: E. coli Rosetta DE3, purified (glutathione Sepharose)
binds: all assays above
